The results in this text go back to PMC12298772.

The target in the experiment is PUUV SP-mEGFP-Gc∆CT (Gc devoid of the cytoplasmic tail, labelled with mEGFP) (Puumala orthohantavirus (PUUV), strain Sotkamo/V-2969/81). Kind of experiment: Number and Brightness (N&B) fluorescence fluctuation microscopy.

As for “PUUV SP-mEGFP-Gc∆CT (Gc devoid of the cytoplasmic tail, labelled with mEGFP) (domain or fragment)”, the average multimerization was determined as 1.4 and the fraction of monomers (assuming a monomer-dimer equilibrium) was determined as 75 mol%.
